Assay: soluble on expression in E. coli; label from the status in PepcDB or PDB records

Row | Sequence | soluble on expression in E. coli
1 | MSEIKQLPTRDEVPTPLTWDLTKIFKDDAAFDVAYNQLIEELNQAESFKGTLGDGAEAFLAALEYVLDVYRKVETLYVYSHLKNDQDTTNTAYQALYARASSLYAQVSEAVSWFDPEVLTLSDEQIWGYFEEQPKLAVYRHYIQNILDERPHVLSMEQEALLAGASEIFGASSNTFSILNNADLEFPTVQNAEGETIQLSHGVYGQLMESVDPSVREAAFKGLYKVYKQFRNTLASTLGAHVKTHNYKAKIRNYDSARAASLASNHIPESVHETLVAVVNKHLPLLHRYVKLRKKLLNVEELHMYDLYAPLLGEAPIRYSYEEAKEKAIEALKPLGEDYLSIVKEAFSSRWIDVIENQGKRSGAYSSGAYDTAPYILMNWHDSLDQLFTLVHEMGHSVHSYYTRNNQPYVYGDYSIFLAEIASTTNENILTEYLLQTETDPKVRAYVLNHYLDGFKGTIFRQTQFAEFEHFIHTEDAKGTPLTSEYLSEYYGELNAKYYGPEVVRDEEISYEWARIPHFYYNYYVYQYATGFSAASALSKHILAGEEGALENYLNYLKAGSSDFPIEVMKKAGVDMTQAAYIEDAMKVFEERLTELEALVEKL | not soluble
2 | MASLSYPKTTMQIQLGANLKPYHTFGIEQLAAQLVVAESIDDLKALYCSAEWASLPKLIIGKGSNMLFTCHYTGMIVVNRLNGIEHQQDDDYHRLHVAGGEDWPSLVSWCVEQGIGGLENLALIPGCAGSAPIQNIGAYGVEFKDVCDYVEYLCLETGTVKRLTMEECQFGYRDSIFKHQLYQKAVVTAVGLKFAKAWQPIIQYGPLKDLSSDCAIHDVYQRVCATRMEKLPDPAVMGNAGSFFKNPVISQQAFARLQIEHPDVVAYPAEQGVKVAAGWLIDQAGLKGHQIGGAKVHPKQALVIVNTGDASAQDVLMLAADIQQRVFNCYGIELEHEVRFIGESEETNLKQWMSEQA | soluble
3 | GMPDSPTLLDLFAEDIGHANQLLQLVDEEFQALERRELPVLQQLLGAKQPLMQQLERNGRARAEILREAGVSLDREGLARYARERADGAELLARGDELGELLERCQQANLRNGRIIRANQASTGSLLNILRGQDAPSLYDSRGGTASSSRQRPLSQA | soluble
4 | MSLNSLPKNIAIYTRVSTEKQDSNNSKANQLESIKQYINNQGWSDVPYEIYSDTQSASITSNSLNMYNDSDTMNPSIFLRDGLRRLIYDANYKKFDKLIVYSHDRLSRDIYEGLLIKHTLKKLNIDILYSKAGEQINSENQSINNFFENMLSNIAALESSIIGGRVLIGNRHNILNNIWAGGPAPYGYKLIALPSNRKKSKLSIYAPEARVVKKIFELYTTGYTPKDIVQFIKSEYSYNKDRLWTINSIKSILNNPVYTGTMVWNKKGGKRNPRKHPIDEYVYSKFDENIRIIDEKLWKKSLNIRKLQDENPKFLSEGHHHHHH | soluble
5 | IRTHLNLPSDKKVIMYAPTWRDDEFVSKGKYLFELKIDLDNLYKELGDDYVILLRMHYLISNALDLSGYENFAIDVSNYNDVSELFLISDCLITDYSSVMFDYGILKRPQFFFAYDIDKYDKGLRGFYMNYMEDLPGPIYTEPYGLAKELKNLDKVQQQYQEKIDAFYDRFCSVDNGKASQYIGDLIHK | not soluble
6 | MGHHHHHHSHMAATKRKRRGGFAVQAKKPKRNEIDAEPPAKRHATAEEVEEEERDRIPGPVCKGKWKNKERILIFSSRGINFRTRHLMQDLRMLMPHSKADTKMDRKDKLFVINEVCEMKNCNKCIYFEAKKKQDLYMW | not soluble
7 | GPGSMWDVVSRVGKAAYRTAALTGLAAGTEQPPYPCALPLKTVSSDSDVDSMREVLNSAFDASKDMLENNGEHQWQLVDYVDPEEGGDLHLFTRPRVGPFNFVKATLSFMGVSPQNVLDTMHSDNADDRKRYSANLSHFEVLAKPMAGCAIELHKYWAPPPVAGREFVFAAEKKYVESENVYYVHGCSIDYTPQMETSKGFVRAACLWAWKLMPVGDNTLATYVSCMNPRGWTPPFIFGWLKSEIGKELVACRRVLYGETVKVERTTLQGMGLSDEVNNLTDEERKRMSEGEPQPEAS | soluble
8 | MNKLRRQLSMNSLLIDTSNQPLSVALMQNDEVLAEITTDSKQNHSVQLMPAISQLFEQSKIAKQQLDAIIVAEGPGSYTGLRIGVTVAKTLAYALDVKLYGVSSLKALAATIDHTDKLLVPVFDARRQAVYTGIFQWQNGQLVTILEDQYMSIEALRAFLEDLNQPFIYIGKDTIKLQDELQGEVIAQLPNASVMYQLIDKPTDVHTFTPKYHKLAEAERNWINSQKNN | not soluble
9 | MDPLDRLIQLANLQGRLDQRCQLQGSWALEHPQAVPGEATFHIVMAGTCYCEFLDGGRLDLHPGDLILLPRGTPHLLRSDSPAQPCEPTVEHRGSIPLYQLNGPGEALDMLCGSYRYHAGASLFGALPERLLVHMDESTQQPLRALIGLMREEAESTRSGARSIIDALATALFALALRAYLDRQPLGDGLFGLLGDARLGRALRAMLERPEHAWTLEQLAQQAAMSRASFVRAFSALGGTSPWNLLTRIRMEKARGLLRQTQKSLLDIAAETGYQSEAAFSRNFRQAFGESPGRFRRQADSAR | not soluble
10 | EVRLVSLRRAKAHEGLGFSIRGGSEHGVGIYVSLVEPGSLAEKEGLRVGDQILRVNDKSLARVTHAEAVKALKGSKKLVLSVYSAGRI | soluble
11 | MGSDKIHHHHHHMSIIMERQRGNQLLRIISEYMTNLKEKGQKLAKDNTMENLVNFTPRYNLIKSYLDDVERALDRSGLCYVKITFITLSKLLTGWSPIYFITEVPLAWDMILDTPYIAGSEIKGIVKNYFKEVTSNDKVESCLYGDEGKMGKVIFFNAYPIDGKNVLTYDIITPHYNGAKDEYNVKPIPIKFLAINKGITFKTYLAFDNKELNECGKDSLYLLLKTMIFSMRIGWGRKVTRGYGSLDIKEMDVKCHGE | not soluble
12 | MSLEEDIQKQIIAAKEEAHDETIWGKPANDIITGIGNNSGVRPQRAIWEMVQNARDVSLNGKADIVFERQHDCFIFQHNGISFTNNTLEALILQTSSKVRNDSVQVGQYGTGFLTTHKLGLKFTLSSSVQLLENEQLFHHFSNFLIDRSSTDKKQMRDSLKKQIKITEEWARNPTIVSGPSSLTTFRYIQEHEVEKMNTKEAFKASSALAPYVIALNPCVNSISFVDNVEDCKELYIRKSTEIINTCDFYNVVKVTIDKCETESCDFTVLMLQSKETVEESGEPKVIVILPIKELESKSVAFALSKDVPNLFIYLPLLGTEQWGLNFIFHSPLFTCDKDSRDSLRFVGNGQNNDVDAERNKGIIQLADVIVSHYITENLSNIQDCMYLAKVAFNLHNSDEALANYYKSLQSSWVKKYESFPFVITKNGNIITRQAKVFDKELFDACLENKDLLTAVYNVTVQIYGTDYLPLETNMLFWSETLLQWYEAESFNPHLIHLSDIVEYIDKNNITTIGEENLWCIDNYIANSKQIGLFTKYKLLPTKNGELRVREDLLNPIIHDESLLKILDSLLPNDVASFIHTRFVLFEDVKIEEYDHNKVKESMRLLVSELSDLQKGHEIYRTNILAGLDVDSNKYEQNKLSDNHINALMGFYAYIVNIGGEAFQYKMIHLLADFYNIDLKSGEAYIKEIYDWRTVAPLLIKDALFRFTLMDSEGHHHHHH | not soluble
13 | MGSDKIHHHHHHMSRKSNAFSGSAAGLQHPDGRNDSGQKQQMSSPAALLQSDTLGSRLTSRGDLTSFFMELTAEIGADSYMLVAIVHDQDRNDARIVSSNWIFDAIELIGKRLIASLAQGALTVAPGIRPRPLVAARAPDADGLVSGEEARLLDVLGHAEIYSLRLNVGRQRLFALFSAATSGQIDQPALMKAQLKCCYALSHIPQLIAAAAMQDPLSDRERECLFWVSEGKTTDEVAVILGVSSNTVNSYITHAIQKFAASNRAMAIATAIRSGII | not soluble
14 | SNRLGIPALSGDTLSLLNTPSEILNAIISDIEKAEHEINMEFYIWHHGGLADSVASALIVAAKRGVTVNVLLDSAGSMDFFKSHWPKLLKQSGVNIVEALSVSPFRMFFRRLDLRLHRKIVVIDNRIAYTGSMNLVDPQYFKQNSGVGQWIDVMVRLTGPNVAILNTIHAWDWEVETGIRELPHLPECPASIDPFNHTTQVVPSGPGMPDDIIQQV | not soluble
15 | MSSNDSSLMAGIIYYSQEKYFHHVQQAAAVGLEKFSNDPVLKFFKAYGVLKEEHIQDAISDLESIRHHPDVSLCSTMALIYAHKRCEIIDQEAIQELEYSLKEIRKTLSGTALYYAGLFLWLIGRHDKAKEYIDRMLKISRGFREAYVLRGWVDLTSDKPHTAKKAIEYLEQGIQDTKDVLGLMGKAMYFMMQQNYSEALEVVNQITVTSGSFLPALVLKMQLFLARQDWEQTVEMGHRILEKDESNIDACQILTVHELAREGNMTTVSSLKTQKVILETESRRNPS | not soluble
16 | MSTLQRRRVNRADSGDTSSIHSSANNTKGDKIANIAVDGDDDNGTNKKIAYDPEESKLRDNINIPTLTLMEEVLLMGLRDREGYLSFWNDSISYALRGCIIIELALRGKIRILDDSARKRFDLSERLIEVIDSSKTGEVLLDETLQLMKNDEPLSISNWIDLLSGETWNLLKINYQLKQVRERLAKGLVDKGVLRTEMKNFFLFDMATHPIADASCKEAIKRRVLSVLVSRNMELSYNEYFPETTSFKIIRTLALICGSYGANVLENVLTTLEYEKRDKAISRAEEIMAQFSQYPFDLEKETELGVSVNLNKEVKEEIENNPGHDLQLEVIAGVFEVFSRMDMLL | soluble
17 | MKRHIAMAAGALALALGAQAAHAGPTLDAVKKKGFVQCGLTDGVAGFSATNSKGEWEGMDVDICRAVAAAVFGDAGKFKGTALSTQQRFTALQSGEVDVLLRTVTLTQTRDTSLGLAAVAASFYDGQGVLVRKALGVKSAKELDEATICVQPGTTTELNLADWFRANGIKFTPVVIDKVTEVVRAFESGRCDAFTDDASQLAAVRATQVAKPDDFEILPERFSKEPLGPMVRQGDENWLGIVRWTLFALMEAEEYGITQQNVDEMLKSKNPNVLRILGVTPGAGKNMGLDEKWAYNAIKAVGNYSQIFERNVGKDSRLGLQRGVNALWSQGGAMYPWPIR | not soluble
18 | MGSDKIHHHHHHMEVFVLGCAGSGKSTFVRSFSEFLQERGYSVKCVNLDPASDPAYRADKNVREFVKTENVMVEYGLGVNGALIKSVEIASEHAEELKAEGDFVLYDTPGQLELFIYSEAGRKFVRELSGSFSCSLFLVDLTTVTDPESLLSAIMQDVIVSLRLSLPTLTAFTKSDVADVDVRSLLGEIKHREGVLAELMEKLVDFIELTTIPYRPIKISNIKKTGYEELFSALYELFCAAET | not soluble
19 | MGSDKIHHHHHHMLFHKFFDFFEGYEDCYVIIGGNAAAIWLAQDHQDFRATQDYDMVVIFENSQLGFSQKFDDFIEKYGYLCVEIGGDVNKKKVYYRFALDPALAVTGVPQQIELFSKIPLRYELRLPTETMPLHFATGPSLSAIVLNDDYYSLLKQCQQKIGHVSILSVPGLIYFKAKAHLDIRQRLANGDKLRHRANKNKHYKDVCRLCDLIIENQTFDSKVVPRTCQNDLKSFIQLVEAEPEQIFKKRFKSDPDFDLNRDEVVRVLRSLLPTS | not soluble
20 | MGHHHHHHSHMKEDKEVQTGYMNAQIEIIPCKICGDKSSGIHYGVITCEGCKGFFRRSQQSNATYSCPRQKNCLIDRTSRNRCQHCRLQKCLAVGMSRDAVKFGRMSKKQRDSLYAEVQKHRMQQQQRDHQQQPG | soluble
21 | MDPACASVDNSKSDPLTDSYPQKYRYSFHRNCQRIMLGVNLKRKNSHYTKGATMTATHNHYLAVLGEDFVAQQYANEGYDITARNVSFSVGEIDIIATSPQGEVVFIEVKTRSSSLMDAAEAVTPTKMRKIHRAASKWLQGKPFADIRFDVVAVHVDEYGELDMTRYQGVEHGAC | not soluble
